Molecular target: human TLR5 (293-hTLR5-LacZ reporter cells) (human, UniProt O60602 21-858)
Test: cell-based or functional assay

Sequence of human TLR5 (293-hTLR5-LacZ reporter cells) (O60602 21-858): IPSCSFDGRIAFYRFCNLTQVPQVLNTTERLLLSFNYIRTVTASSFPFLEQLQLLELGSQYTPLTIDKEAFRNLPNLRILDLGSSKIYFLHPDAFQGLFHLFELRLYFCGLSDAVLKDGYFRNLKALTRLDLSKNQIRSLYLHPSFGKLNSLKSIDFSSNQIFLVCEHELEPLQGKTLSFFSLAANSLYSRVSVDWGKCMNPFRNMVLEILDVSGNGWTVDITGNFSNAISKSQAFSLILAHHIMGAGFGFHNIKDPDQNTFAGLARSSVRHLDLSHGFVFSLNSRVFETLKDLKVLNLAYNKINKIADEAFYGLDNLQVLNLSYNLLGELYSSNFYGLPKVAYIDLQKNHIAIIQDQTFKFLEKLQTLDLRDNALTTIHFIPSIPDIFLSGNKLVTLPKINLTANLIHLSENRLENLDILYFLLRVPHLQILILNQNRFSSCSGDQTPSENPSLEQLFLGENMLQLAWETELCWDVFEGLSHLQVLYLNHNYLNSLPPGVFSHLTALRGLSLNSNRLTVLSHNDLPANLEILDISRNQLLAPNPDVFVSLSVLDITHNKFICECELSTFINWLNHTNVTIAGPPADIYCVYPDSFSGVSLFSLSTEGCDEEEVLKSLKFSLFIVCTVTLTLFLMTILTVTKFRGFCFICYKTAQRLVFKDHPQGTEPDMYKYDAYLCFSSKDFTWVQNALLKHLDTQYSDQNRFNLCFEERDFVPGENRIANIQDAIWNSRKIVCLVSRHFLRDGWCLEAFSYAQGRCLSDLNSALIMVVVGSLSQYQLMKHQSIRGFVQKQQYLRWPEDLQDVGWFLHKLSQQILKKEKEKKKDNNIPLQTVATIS

B1: entolimod/CBLB502 (ligand)
chain: not shown
For B1, which “EC50, ng/ml (NF-κB reporter enzyme activity)” value is on record?
The value was 0.032 ng/mL.

And the “EC50, pM (NF-κB reporter enzyme activity)” value?
Its value is 0.92 pM.
